The record followed here is the nanobody polyreactivity screen of Harvey et al. (2022).

The series in a line: yeast display, Sf9 membrane polyspecificity reagent, FACS + sequencing; frameworks hold sequencing errors. The method, boiled down:
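Sorting gates, low and high (top ~1%), were placed on anti-HA fluorescence to track expression and on streptavidin fluorescence to track reagent binding. A clone's polyreactivity label is taken from the gate it came out of. The reagent was 10% biotinylated, detergent-solubilized Sf9 membrane, applied for 1 hour at 4 °C to galactose-induced yeast display cells.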
Consider “QVQLVESGGGLVQAGGSLRLSCAASGSIFILYAMVWYRQAPGKERELVAAISSTGTTYYADSVKGRFTISRDNAKNTVYLQMNSLKPEDTAVYYCATDEPSSGRTPYDYWGQGTQVTVSS”, for which the “polyreactivity (PSR sort gate)” value is “low polyreactivity”.
In the case of “QFQLVESGGGLVQAGGSHRLSCAASGRIVDYYAMGWYRQAPGKERDLVAAISTSGGSTYYADSVKGRFTISRDNAKITVYLLMNSLKPEDTAVYYCGKDITVTYPVLDYDYWGQCTQVTVSS”, the “polyreactivity (PSR sort gate)” value is “low polyreactivity”.
In the case of “QVQLVESGRGLVQAGGSLRLICAASGSIFFYYAMGWYRQAPGKERELVAVITSGGSTNYADSVKGRFTISRDNAKNTVYLQMNSLKPEDTAVYYCNADGYGYFTVREFLDYDYWGQGTQVTVSS”, the “polyreactivity (PSR sort gate)” value is recorded as “low polyreactivity”.
For “QVHLVESVGGLVQAGGSLRLSCAASGRIFRYYAMGWYRQAPVKAWELVATISQRGGTYYADSVKGRFTISRDNAKNTVYLQMNSLKPEDTAVYYCAARINTYRSYYPSSRSDYWGQGTQVTVSS”, the “polyreactivity (PSR sort gate)” value is given as “high polyreactivity”.
Under “QVQLVESGGGLVQAGGSLRLSCAASGSTFDDYAMGWYRQATGIERELVAAINNGGSTTYADSVKGRFTISRDNAKNTVYLQMNSLKPEDTAVYYCAKDSGAWEYDYWGQGTQVTVSS” stands “low polyreactivity”; under “QVQLVESGGGLVQAGGSLRLSCAASGRIFDRYAMGWYRQAPGKERELVAAITSSGGRTYYADSVKGRFTISRDNAKNTVYLQMYSLKPEDTAVYYCAARWYGGYNYWGQGTQVTVSS”, “high polyreactivity”.
Under “QVQLVESGGGLVQAGGSLRLSCAASGFIFARYAMGWYRQAPGKERELVAAISVSGGSTYYADSVKGRFTISRDNAKNTVYLQMNSLKPEDTAVYYCAATRPFVSGWIMDYWGQGTQVTVSS” stands “high polyreactivity”.
Under “QVQLEESGAGLVQAGGSLRLSCAASGRTFWFYTMGLYRQAPGKERELVAAISSAGSTNYADSVKGRFTISRDNAKNTVYLQMNSLKPEDTAVYYCNARFPVGPSEDAVWYYPKYDYWGQGTQVTVSS” stands “low polyreactivity”; under “QVQIVDSGRGLVQAGGSLRLSCAASGRTFIRYTMGWSRQATGKERELFAAITSGGITNYADSVKGRFTISRDNAKNPVYLQMNSLKPQDSALYYCAARHRWVTGSYGKYDYLGQGTQVTVSS”, “low polyreactivity”.
As for “QVQLVESGGGLVQAGGSLRLSCAASGFTLVLNAMGWYRQAPGKERELVAAIRRSAGSTYYADSVKGRFTISRDNAKNTVYLQLNSLKPEDTAVYYCAACFLWAKYAYGHWGTFNYWGQGTQVTVSS”, the “polyreactivity (PSR sort gate)” value is given as “low polyreactivity”.
“QVQLVESGGGLVQAGGSLRLSCAASGITFALNAMGWYRQAPGKERELVAAIRWGGDSTYYADSVKGRFTISRDNAKNTVYLQMNSLKPEDTAVYYCAAYGPRTLDYWGQGTQVTVSS”: the “polyreactivity (PSR sort gate)” value is “high polyreactivity”.
Regarding “QVQLVESGGGLVQAGGSLRLSCAASGFTFRWYDMGWYRKAPGKERELVAAIDASDGSTYYADSVKGRFTISRDNAKNTVYLLMNSLKPEDTAVYYCAAEDYQPYFYLYWYDYWGQGTQVTVSS”, the “polyreactivity (PSR sort gate)” value was “high polyreactivity”.
Under “QVQLVESGVGLVQAGGSLRLSCAASGLTYYGYVMGWYRQAPGKERELVAAISQSGGTTYYADSVNGRFTISRDNAKNTFYLHMNSLTPEDTAVYYCAADHFYILIFLYGKLTLDYWGQGTQVTVSS” stands “high polyreactivity”; under “QVQLVESGGGLVQARGSLRLSCAASGSTFSRNVMGWYRQATGKERELVAAISRGGSTNYADSVKGRFTISRDNAKNTVYLQMNSLKPEDTAVDYCAARSYGSTGPHGLKWVSYDYWGQGTQVTVSS”, “low polyreactivity”.
For the sequence “QVQLVESGGGLVKAGGSLRLSCAASGFTFLNNTMGWYRQAPGKERELVAGITSSGDRTYYADSVKGRFTISRDNAKNTVYLQMNSLKPEDTAVYYCNADSSYPPGYDYWGQGTQVTVSS”, the “polyreactivity (PSR sort gate)” value was “low polyreactivity”.
Under “QVHLVESWGGLVQAGGSLRLSCAASGSIFYYYAMGWYRLAPGKERELVAAITSGGSTYYADSVKGRFTISRDNAKNTVYLQMNSLKPEDTAVYYCAAVFYAAYLRYVWYSYDYWGQGTQVTVSS” stands “low polyreactivity”; under “QVQLVESRGGLVQAGGSLRLSCAASGSIFVWNAKGWYRQAPGKERELVAAINVRSASTFYADSVKGRFTISRDIAKNTVYLQMNSLKPEDTAVYYCATSYTKQGFRYYYWGQGTQVTVSS”, “high polyreactivity”.
To “QVQLVESGGGLVQAGGSLRLSCAASGFIFRYYAMGWYRQAPGKERELVAGISSSGASTYYADSVKGRFTISRDNAKYTVYLLMNSLKPEDTAVYYCAARRQRDRYGYWGQGTQVTVSS” belongs “high polyreactivity”.
As to “QVQLVESGGGLVQSGGSLRLSCAASGRIFKLYAMGWYRQAPGKERELVAAITRTGTSTYYADSVKGRFTISRDNAKNTVYLQMNSLKPEDTAVYYCNKTTLLTVEYDYWGQGTQVTVSS”, the “polyreactivity (PSR sort gate)” value is given as “low polyreactivity”.
To “QVQLVESGGGLVQAGGSLRLSCAASGFTLANYAMGWYRQAPGKERELVAAIDYSGGGTYYADSVKGRFTISRDNAKNTVYFQMNSLKPEDTAVYYCAARRWSYYSAKYDYWGQGTQVTVSS” belongs “low polyreactivity”.
On to “QVQLVESGGGLVQAGGSLRLSCAASGSIFYSYAMGWYRQAPGKARELVATISWAGGRTNYADSVKGRFTISRDNAKNTEYLQMNSLKPEDTAVSYCNKPFPYYPDGPNGYDYWGQGTQVTVSS”, for which the “polyreactivity (PSR sort gate)” value is “low polyreactivity”.
Regarding “QVQLVESGGGLVQAGGSLRLSCAASGGTFSYNAMGWYRQAPGKERELVAAISWSGTRTYYADSVKGRFTISRDNAKNTVYLQMNSLKPEDTAVYYCNKTPPNRGRYDYCGQGTQVTVSS”, the “polyreactivity (PSR sort gate)” value is listed as “low polyreactivity”.
Under “QVQLVESGGGLVQAGGSLSLSCAASGRIFTQYAMGWSRQAPGKERELVTAINASDGSTYADSVKGRFTISRDNAKNTVYLQMNCLIPEDTAVYYCNVTGGPYDFTRWSEFDHWGQGTQVTVSS” stands “low polyreactivity”; under “QVQLVESGGGLVKAGGSHRLSLASYGTFRYYAMGWYRQAPGKERELDAGISRSGGSTYYEDSVKGRFTISRDNAKNTVYLQMNSQNPEDTEVYDCAAGNYYYWYKTKYYHYDYWGQGTQVTVSS”, “high polyreactivity”.
To “QVQLVESGGGLVQAGGSLRLSCAASGIIFGYYAMGWYRQAPGKERELVASIIWSGGSTYYADSVKGRFTISRDNAKNTVYLQMNSLKPEDTAVYYCAAYRYQEYDYWGQGTQVTVSS” belongs “high polyreactivity”; to “QVQLVESGGGLVQAGGSILLSCAASGSIYGTNTMGWYRQAPGKEREFVAVITGSTTSTYYADSVKGLFTISRDNAKNTVYLQMNSLKPEDTAVYYCATDYWWDLFEYDYWGQGTQVTVSS”, “high polyreactivity”; to “QVHLVESGGGLVQAGGSLRLSCAASGRTFTGYAMGWYRQAPGKEREFVAAISSGGVRTYYADSVKGRFTISRDNAKNTVYLQMNSLKPEDTAVYYCNARQVYYRGTFRYSYDYWGQGTQVTVSS”, “high polyreactivity”.
Consider “QVQLVESGGGLVQAGGSLRLSCAASGRIFYGYTMGWYRQAPGKERELVASITIRGSRTYYADSVKGRFTISRDNAKNSVYLQMNSLKPEDTAVYYCAADFVPARTVHRYDYWGQGTQVTVSS”, for which the “polyreactivity (PSR sort gate)” value is on record as “low polyreactivity”.
Regarding “QVHLVESGGGLVQAGGSRRLSCAASGITYRFYTMGWYRQAPGKEREFVAAITYGVGRTDYADSVKGRFTISRDNAKNTVYLQMNSLNPEDTAVYYCAATWGYGYDYWGQGTQVTVSS”, the “polyreactivity (PSR sort gate)” value is “high polyreactivity”.
To “QVQLVESGGGLVQAGGSLRLSCAASGGTFGYNAMGWYRQAPWKERELVAAISSGGRTYYADSVKGRFTISRDNAKNTVYLQMNSLKPEDTAVYYCNARKGLYYGGRYDYWGQGTQVTVSS” belongs “high polyreactivity”; to “QVQLVESGGGLVQAGGSLRLSCAASGIIISRYAMGWYRQAPGKERELVADISIGDSTNYADSVKGRFTISRDNAKNTVYLQMNSLKPEDTAVYYCAAGDYFYSYYYWGQGTQVTVSS”, “low polyreactivity”; to “QVQLVESGGGLVQAGGSLRLSCAASGFTIYSYAKAWYRQAPGKERELVAAITRGSSTNYADSVKGRFTISRDNAKNTVYLQMNSLKPEDTAVYYCNRGGWRQYDSWGQGTQVTVSS”, “high polyreactivity”.
As to “QVQLVESGGGLVQAGGSLRLSCAASGRTFSAYAMGWYRQAPGKERELVADIRRGGGTNYADSVKGRFTISRDNAKNTVYLQMNSLKPEDTAVYYCAAGYLRTYTRRYYWGQGTQVTVSS”, the “polyreactivity (PSR sort gate)” value was “high polyreactivity”.
Under “QVQLVESGGGLVQAGGSLRLSCAASGIIFTRYAMGWYRQAPGKERELVAAITTSGGRTYYADSVKGRFTISRDNAKNTVYLQMNSLKPEDTAVYYCAVSGHARYDYWGQGTQVTVSS” stands “high polyreactivity”; under “QVQLVESAGGLVQAGGSLLLSCAASGFTFYPYAMGWYRQAPGKERELVAAISNGDSTHYADSVKGRFTISRDNAKNTVYLQMTSQKPEDTAVYYCAAPRYPYRCFYSDYDYWGQGTQVTVSS”, “low polyreactivity”; under “QVQLVESGGGLVQAGGSLRLSCAASGGTFYYYAMGWYRQAPGKERELVAAISRDGSTYYADSVKGRFTISRDNAKNTVYLQMNSLKPEDTAVYYCAVRTRRKYGYWGQGTQVTVSS”, “high polyreactivity”.
Regarding “QVQLVESGGGLDQAGGSLRLSCAASGRTFVYYALGWYRQAPRQERELVAAITWSGGRTYYADSVKGRFTISRDNAKNTVYLQMNSLKPEDTAVYYCNRDQWAWESGYAYNYCGQGTQVTVSS”, the “polyreactivity (PSR sort gate)” value is reported as “low polyreactivity”.
For the sequence “QVQLVESGGGLVQAGGSLRLSCAASGGTFNGYALGWYRQAPGKERELVAAITSGGGSTYADSVKGRFTISRDNAKNTVYLQMNSLKPEDTAVYYCNADQWDEWFWDYDYWGQGTQVTVSS”, the “polyreactivity (PSR sort gate)” value was “low polyreactivity”.
Turning to “QVQLVESGGGLVQAGGSLRLSCAASGFILERYAMGWYRQAPGKERELVAAISSVGNTNYADSVKGRFTITRDNAKNTVYLQMNSLKPEDTAVYYCAAEGAFPIYDYWGQGTQVTVSS”, the “polyreactivity (PSR sort gate)” value was “low polyreactivity”.
Turning to “QVQLVESGGGLVQAGGSLSLSCAASGSTFRGYAMGWDRQAPGKERELVADSTYYADSVKGRFTISRDNAKNTVYFQMNCLKPEDTAVYYCNADIAGWGSQDGTDDYWGLGTQVTVSS”, the “polyreactivity (PSR sort gate)” value is listed as “high polyreactivity”.
Take “HAQLQESGGGLVQAGGSLRRSCAASGSIFRFSGMGWYRLAPGKERELVASIGFGSITYYADRVNGRFTISRDNANNTVYLQMNSLKPEDTAVYYCAVQVQDESWLDYWGQGTQVTVSC”: the “polyreactivity (PSR sort gate)” value was “low polyreactivity”.
